We go through one molecule from US20020031818A1, “Modification of Mdm2 activity” (priority 2000, published 2002).

Test [1] addresses T1, Mdm2 (Homo sapiens, UniProt Q00987). The test is described as follows: Pulse-chase half-life of Mdm2 wt or S218A in normal human fibroblasts. The format is cell-based. Details: Normal human fibroblasts (TIG) were transfected with HA-Ub and wt or mutant Ubc9 plasmids as indicated; endogenous in cells; host or cells: normal human fibroblasts (TIG). On the procedure: FIG. 16A-16F. A. Activation of p38 increases Mdm2 ubiquitination in vivo. EJ cells were transfected with indicated plasmids. 36 h after transfection cells were harvested and Mdm2 was immunoprecipitated (2A10 antibodies). […] Middle panels show expression levels of Mdm2 and p19^ARF. Lower panels depict phospho-and total p38 levels. B. Mutation at Ser218 of Mdm2 abolishes p38 induced Mdm2 ubiquitination. Normal human fibroblasts were transfected with indicated plasmids. 36 h after transfection cells were harvested and lysed. Mdm2 was immunoprecipitated and proteins were separated on a 8% SDS-PAGE. […] C. Mutation at Ser218 of Mdm2 abrogates p19^ARF-induced Mdm2 degradation. […] Upper panels depict Mdm2-Sumo conjugates (detected via Sumo-1 anitbodies), as well as the 75 kD and 90 kD forms of Mdm2 (detected via Mdm2 antibodies). […] To monitor possible changes in amount of p19 bound to Mdm2 association was monitored using normalized Mdm2 levels at the indicated time-points after UV-treatment.
Normal human fibroblasts (NHF) were transfected with wt or S218A forms of Mdm2 expression vectors (4 μg). ^35S-methionine (1 mCi) was added to the cell cultures 24 h after transfection for 5 h (pulse) followed by chase (2 mM cold methionine) for the indicated time points. […] Immunoprecipated Mdm2 was washed, separated on 10% SDS-PAGE, and analyzed by autoradiography.

In test [2] the target is T1, Mdm2. As to the kind of experiment: In vivo sumoylation of Mdm2 in p53/Mdm2 double null cells. It is filed as cell-based. Details: expressed in transfected cells; host or cells: p53/Mdm2 double null cells. To be noted: Flag-Mdm2, HA-SUMO, p19 wt 1.5 μg each; MG132. On the procedure: FIGS. 10A-10D. A. Time dependent Mdm2 sumoylation in vitro. Bacterially expressed and purified GST-Mdm2 was subjected to in vitro sumoylation reaction in the presence of E1, Ubc9, and ^35S-Sumos. Reaction was terminated after 10,30,50 or 60 minutes, Proteins were separated on 8% gel, Commassie stained, dryed and exposed overnight (upper panel). Lower panel depicts Commassie blue staining of Mdm2 forms. B. A peptide corresponding to the Ubc-9 binding site on Mdm2 decreases Mdm2 in vitro sumoylation of Mdm2 in a time-dependent manner. (Upper part) The specific Ubc-9-binding site peptide or a nonspecific peptide was added to the reaction for the indicated time periods. […] The lower panel depicts a Coomassie staining visualizing relative amounts of sumoylated and non-sumoylated forms of purified GST-Mdm2. C. The Mdm2 sumoylation assay was carried out in the presence of Ubc-9-binding site peptide (mu9bs) or a nonspecific peptide ([…]) which were added to the reaction at the indicated concentrations. […] D. A peptide corresponding to the Ubc-9 binding site on Mdm2 decreases Mdm2 sumoylation in vivo. […] Immunoprecipitated Mdm2 levels were detected using 2A10 antibodies (top). […]
FIG. 13A-13E. […] (Left) Immunoprecipitated Mdm2 was detected using monoclonal Mdm2 antibodies (2A10, left). […]

T1 sequence (Q00987 whole entry): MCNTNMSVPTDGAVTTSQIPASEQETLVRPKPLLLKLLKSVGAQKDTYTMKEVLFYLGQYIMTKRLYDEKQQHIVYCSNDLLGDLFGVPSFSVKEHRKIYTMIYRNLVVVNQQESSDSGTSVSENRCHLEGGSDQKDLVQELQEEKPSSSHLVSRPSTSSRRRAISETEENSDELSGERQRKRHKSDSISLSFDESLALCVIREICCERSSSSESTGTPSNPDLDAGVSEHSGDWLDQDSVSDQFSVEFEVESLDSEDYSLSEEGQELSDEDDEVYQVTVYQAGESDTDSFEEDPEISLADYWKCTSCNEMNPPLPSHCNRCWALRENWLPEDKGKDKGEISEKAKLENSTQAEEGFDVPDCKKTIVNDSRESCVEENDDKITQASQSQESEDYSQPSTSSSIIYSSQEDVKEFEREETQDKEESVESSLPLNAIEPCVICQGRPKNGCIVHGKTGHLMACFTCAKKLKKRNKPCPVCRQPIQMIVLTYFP

B1: p19^ARF: Mdm2-regulating protein; in vitro translated, bacculovirus-expressed or transfected (protein)
chain: MGRRFLVTVRIQRAGRPLQERVFLVKFVRSRRPRTASCALAFVNMLLRLERILRRGPHRNPGPGDDDGQRSRSSSSAQLRCRFELRGPHYLLPPGARRSAGRLPGHAGGAARVRGSAGCARCLGSPAARLGPRAGTSRHRAIFAFRWVLFVFRWVVFVYRWERRPDRRA
For the molecule B1, in the test with Mdm2 [1], the “effect on half-life of wt Mdm2” value is reported as “efficiently shorten Mdm2 half-life”. Moreover, in the test with Mdm2 [2], the “Mdm2 sumoylation in Mdm2/p53-/- cells upon p19ARF co-expression” value was “reduced the degree of Mdm2 sumoylation”.
